Among the data in PMC3493473 are in vitro 32P kinase activity of ROP18-FL (25 ng) on immunoprecipitated Irgb6 with against without rROP5 (50 ng), fold increase (Figure 5F) and in vitro 32P kinase activity of ROP18-KD (100 ng) on dMBP with against without rROP5 (200 ng), fold increase (Figure 5E) values, retold here.

Assay [1] deals with full length ROP18 (ROP18-FL), recombinant (Toxoplasma gondii (type I RH strain)).
For assay [2], the target named is T1, ROP18-kinase domain (ROP18-KD) (Toxoplasma gondii) (UniProt Q2PAY2).
T1 sequence: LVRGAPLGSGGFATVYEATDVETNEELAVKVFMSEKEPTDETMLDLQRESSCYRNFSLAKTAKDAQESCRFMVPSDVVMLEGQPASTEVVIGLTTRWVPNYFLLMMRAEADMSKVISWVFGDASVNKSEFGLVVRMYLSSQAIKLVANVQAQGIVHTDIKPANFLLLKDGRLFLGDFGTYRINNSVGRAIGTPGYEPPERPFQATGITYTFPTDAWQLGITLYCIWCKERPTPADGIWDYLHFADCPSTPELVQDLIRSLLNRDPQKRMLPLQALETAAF

In the case of “recombinant ROP5 (rROP5) (from UniProt F2YGR7 25-549) (natural protein)”, the in vitro 32P kinase activity of ROP18-FL (25 ng) on immunoprecipitated Irgb6 with against without rROP5 (50 ng), fold increase (Figure 5F) in assay [1] was found to be 12 fold. This substance also yielded an in vitro 32P kinase activity of ROP18-KD (100 ng) on dMBP with against without rROP5 (200 ng), fold increase (Figure 5E) in assay [2] of 12 fold.
